The values that follow come from patent publication US12064464B2, “Plantaricin NC8 alpha beta markedly enhances the effects of antibiotics” (priority 2018, dated 2024).

The test system of assay [1] is S. aureus ATCC 29213 (MSSA). Kind of assay: Broth microdilution MIC/MBC. In kind it is cell-based, Staphylococcus aureus. To be noted: Table 1, peptide alone, 20 h; no unit in table, μM. From the text: (§1) Staphylococcus aureus CCUG 35601 (MRSA, Culture Collection, University of Gothenburg) and Staphylococcus aureus ATCC 29213 (MSSA, ATCC, Manassas, VA). Staphylococcus epidermidis ATCC 12228 (ATCC, Manassas, VA), RP62A, N15 and 10 clinical isolates of Staphylococcus epidermidis that have previously been characterized. Isolated Escherichia coli, Enterococcus faecium (including VRE), Pseudomonas aeruginosa, Klebsiella pneumoniae, Enterobacter spp and Acinetobacter baumannii were obtained from Orebro University hospital. Isolated Streptococcus mutans, Streptococcus constellatus and Streptococcus anginosus were obtained from Malmo University. The bacteria were grown on Luria-Bertani (LB) agar plates, supplemented with 5% defibrinated horse blood, and incubated at 37° C. overnight. Single colonies were inoculated into 5 ml of LB broth and incubated on a shaker (300 rpm) at 37° C. overnight. The bacterial concentration was determined by viable count and adjusted to correlate with approximately 10^9 CFU/ml.
(§2) The broth microdilution method was used to determine minimal inhibitory concentration (MIC) and minimal bactericidal concentration (MBC). Two-fold serial dilutions of the peptides were used and the final concentrations ranged from 0.097-50 μM. […] The effect of bacteriocin-antibiotic combinations was accomplished by using the same concentration series of antibiotics with a constant concentration of PLNC8 αβ (3.1 μM) in all the wells. […] All experiments were repeated at least three times.

Assay [2] concerns S. aureus CCUG 35601 (MRSA). Kind of assay: Broth microdilution MIC/MBC. In kind it is cell-based, Staphylococcus aureus.
From the text: as §1, §2

Assay [3] concerns Streptococcus spp (S. mutans, S. constellatus, S. anginosus). Briefly: Sytox Green uptake (membrane permeabilization). Format: cell-based. To be noted: 5 μM, 2 min. How it is done:
The fluorescent dye Sytox® Green, which can only cross damaged membranes and fluoresce upon binding to nucleic acids, was used to study the antimicrobial activity of PLNC8 αβ on S. epidermidis, S. aureus (MSSA, MRSA) and Streptococcus spp. The bacteria were washed and resuspended in Krebs-Ringer Glucose buffer (KRG) (120 mM NaCl, 4.9 mM KCl, 1.2 mM MgSO4, 1.7 mM KH2PO4, 8.3 mM Na2HPO4, and 10 mM glucose, pH 7.3) and incubated in the presence or absence of different combinations of PLNC8 αβ in 96-well microtiter plates for 2 min. Images were captured with Olympus BX41 at 40× magnification.

Another assay concerns HaCaT cells. Briefly: Scratch assay and ELISA on keratinocytes. The note with it: uninfected cells, 24 h. Format: cell-based, human. How it is done:
Human keratinocytes (HaCaT) were cultured in Dulbecco's modified Eagle medium (DMEM, Fisher Scientific, New York, USA) supplemented with 10% FBS (FBS, Invitrogen Ltd, Paisley, UK) incubated in a stable environment at 95% air, 5% CO2 and 37° C. The cells were used at passages 1-20.
HaCaT cells were cultured overnight in a 24-well plate at a seed-count of 2×10^5 cells per well. […] Co-stimulation was performed by infection of human keratinocytes, in the presence or absence of PLNC8 αβ, for 24 h, or infection of the cells for 1 h followed by addition of different concentrations of PLNC8 αβ for 6 h. Furthermore, infection of keratinocytes, with or without PLNC8 αβ, were monitored in real-time for 72 hours using IncuCyte Live-cell Analysis System. Bacterial load was quantified by measuring the fluorescence of green fluorescent protein (GFP) and cell viability was determined by measuring the fluorescent dye Draq7 that stains nuclei of dead cells.
ELISA was performed on supernatants retrieved from human keratinocytes that were exposed to MSSA and PLNC8 αβ. The levels of CXCL8 (Human IL-8 ELISA MAX Deluxe, Nordic Biosite, Sweden) and IL-6 (Human IL-6 ELISA MAX Deluxe, Nordic Biosite, Sweden) were quantified according to the manufacturer's instructions.
On the technique in general: An ELISA detects its analyte on a solid surface through an enzyme-linked reagent.

The conditions of assay [4]: references 1, 2; cited from earlier work.
[5] abbreviates: Table 1, peptide alone, 20 h, no unit in table, μM.

B1: PLNC8 αβ: two-peptide class IIb bacteriocin of L. plantarum NC8: PLNC8 α (SEQ ID NO 1) with PLNC8 β (SEQ ID NO 2) (peptide)
alpha: DLTTKLWSSWGYYLGKKARWNLKHPYVQF
beta: SVPTSVYTLGIKILWSAYKHRKTIEKSFNKGFYH
modifications: Lactobacillus plantarum NC8
As to B1, in assay [1], the MBC came to 25 µM and the minimal inhibitory concentration (MIC) was found to be 12.5 µM. For the same molecule, in assay [2] (setting [5]), the MBC was 25 µM and the MIC stood at 12.5 µM. Further, in assay [2] (Table 3, MRSA, peptide alone), the MBC amounted to 25 µM and the MIC was 12.5 µM. Also, in assay [3], the “relative susceptibility of Streptococcus species” value is “S. constellatus and S. anginosus were more susceptible to PLNC8 αβ than S. mutans”. Further, in the assay on HaCaT cells, the “IL-6 and CXCL8” value was “not altered”; the “wound healing (scratch assay)” value is “promoted wound healing in vitro”. For the same molecule, the cell proliferation entry in assay [4] is reported as “stimulates cell proliferation”.

One may read the MBC as the smallest concentration meeting the test's criterion for killing. What is called MIC is the lowest concentration found to suppress growth.
